Tests used:
[1] = test system: C2C12-α1 and C2C12-α2 cells (human integrin α1 or α2 subunits); experiment: C2C12 cell adhesion to coated DC proteins; assay type: cell-based, mouse; details: 10 μg coated protein; 1 hour
Procedure: Integrin interactions with DC2-Fg—A11 cell culture supplies were purchased from Life Technologies and used as received unless otherwise noted. […] Mouse myoblast C2C12, C2C12-α1, and C2C12-α2 cells were cultured in Dulbecco's modified Eagle's medium (DMEM) with 10 vol % fetal bovine serum (FBS) and 1 vol % penicillin-streptomycin, 1 mg ml^−1 geneticin, or 10 μg ml^−1 puromycin, respectively. To assess C2C12 cell adhesion, 48 well tissue culture polystyrene (TCPS) plates were coated with 10 μg of DC1 (negative control—no integrin binding sites), DC2, DC2-Fg, or collagen type I (positive control) overnight at 4° C. Proteins were coated in triplicate for each cell type. Wells were blocked with 4 wt % bovine serum albumin (BSA) in PBS for 1 hour at room temperature and rinsed with sterile PBS. Cells were adapted to serum-free media (DMEM with 1 mM CaCl2, 1 mM MgCl2, and appropriate antibiotic) for 12 hours prior to trypsinization and seeding at 5,000 cells cm^−1. […] Lysates from samples and from known standards were transferred to a 96 well plate, and cell numbers were measured with the CYTOTOX 96® NON-RADIOACTIVE CYTOTOXICITY ASSAY. […] Then, 50 μl of stop solution was added to each well, and the absorbance was read at 490 nm. Cell numbers were quantified using standards of known cell numbers for each cell line.

Fibrinogen = molecular target: T1, Fibrinogen (Homo sapiens, UniProt P02671+P02675+P02679); experiment: Solid phase binding assay, fibrinogen binding to coated DC2, DC2-Fg, Efb; details: read-out: apparent KD of fibrinogen binding
T1 sequence (P02671 20-629 limits assumed): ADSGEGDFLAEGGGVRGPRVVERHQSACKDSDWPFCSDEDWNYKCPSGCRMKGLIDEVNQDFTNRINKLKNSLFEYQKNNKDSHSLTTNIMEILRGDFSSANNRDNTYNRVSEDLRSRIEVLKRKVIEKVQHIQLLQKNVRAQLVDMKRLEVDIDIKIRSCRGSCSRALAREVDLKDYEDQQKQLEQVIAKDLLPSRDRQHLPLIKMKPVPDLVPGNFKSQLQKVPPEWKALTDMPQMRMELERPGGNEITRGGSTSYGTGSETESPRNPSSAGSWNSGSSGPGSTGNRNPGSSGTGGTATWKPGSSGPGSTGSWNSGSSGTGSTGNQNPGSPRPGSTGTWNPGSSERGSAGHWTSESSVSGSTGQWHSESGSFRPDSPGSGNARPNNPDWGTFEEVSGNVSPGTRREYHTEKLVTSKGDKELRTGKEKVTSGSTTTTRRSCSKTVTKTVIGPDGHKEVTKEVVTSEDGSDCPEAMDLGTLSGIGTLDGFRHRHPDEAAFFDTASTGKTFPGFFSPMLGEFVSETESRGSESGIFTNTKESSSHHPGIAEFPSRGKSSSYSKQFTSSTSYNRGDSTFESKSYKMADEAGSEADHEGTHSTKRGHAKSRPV
T1 sequence (P02675 31-491): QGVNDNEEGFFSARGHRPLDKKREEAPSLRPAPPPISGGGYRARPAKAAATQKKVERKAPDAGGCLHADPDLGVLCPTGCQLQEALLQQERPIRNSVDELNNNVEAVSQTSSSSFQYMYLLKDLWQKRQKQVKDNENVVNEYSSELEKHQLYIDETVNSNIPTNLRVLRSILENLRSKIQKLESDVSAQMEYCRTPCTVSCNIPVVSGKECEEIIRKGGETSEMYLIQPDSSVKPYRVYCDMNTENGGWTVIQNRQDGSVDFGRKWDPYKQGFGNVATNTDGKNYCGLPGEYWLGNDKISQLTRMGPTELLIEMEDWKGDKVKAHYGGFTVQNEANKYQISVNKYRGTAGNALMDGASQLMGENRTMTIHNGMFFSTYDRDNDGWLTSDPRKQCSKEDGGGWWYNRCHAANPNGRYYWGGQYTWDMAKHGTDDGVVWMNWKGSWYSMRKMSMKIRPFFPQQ
T1 sequence (P02679 27-453): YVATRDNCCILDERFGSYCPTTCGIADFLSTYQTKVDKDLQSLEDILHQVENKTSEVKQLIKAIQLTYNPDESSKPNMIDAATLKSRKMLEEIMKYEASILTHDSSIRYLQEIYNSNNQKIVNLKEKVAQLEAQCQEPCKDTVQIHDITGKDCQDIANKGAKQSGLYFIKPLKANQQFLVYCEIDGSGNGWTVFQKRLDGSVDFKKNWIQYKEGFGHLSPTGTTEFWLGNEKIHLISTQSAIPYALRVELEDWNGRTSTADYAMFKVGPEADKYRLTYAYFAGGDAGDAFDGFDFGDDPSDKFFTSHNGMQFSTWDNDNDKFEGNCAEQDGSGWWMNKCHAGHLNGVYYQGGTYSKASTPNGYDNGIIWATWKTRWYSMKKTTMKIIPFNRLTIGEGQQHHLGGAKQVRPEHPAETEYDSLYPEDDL
Procedure: Solid phase binding assay-: Microtiter wells were coated with 1 μg of DC2, DC2-Fg, or Efb overnight at 4° C. to assess fibrinogen adhesion to DC proteins. Coated wells were blocked with 4 wt % BSA in PBS for 1 hour at room temperature. Fibrinogen was added to each protein-coated well in a serial dilution from 100 to 0 μg/well (0.3 to 0 μM). After 1 hour of incubation at room temperature, a sheep anti-fibrinogen antibody was applied to the wells (1:1000 dilution) for 1 hour at room temperature. An HRP-labelled secondary antibody to sheep was applied to the wells for 1 hour at room temperature, and […]™ OPD was utilized to detect bound fibrinogen via an absorbance reading at 450 nm on a THERMOMAX™ plate reader. Studies were performed in triplicate, and plates were washed three times between each step with 200 μl of PBS with 0.1 vol % TWEEN® 20.

rCoa-C binding to Fg = molecular target: T2, rCoa-C binding to Fg (Homo sapiens, UniProt P02671+P02675+P02679); experiment: Competition ELISA, peptide inhibition of rCoa-C (Coa 311-636) binding to Fg; details: increasing concentrations of peptides; 4 nM GST fusion protein
T2 construct: full-length human Fibrinogen (diluted in PBS, Enzyme research); purchased Enzyme research; host or cells: Coa probe made in E. coli BL21
T2 sequence (P02671 20-629 limits assumed): T1 sequence (P02671 20-629 limits assumed)
T2 sequence (P02675 31-491): T1 sequence (P02675 31-491)
T2 sequence (P02679 27-453): T1 sequence (P02679 27-453)
Procedure: The residues in Coa-RI important for fibrinogen binding. FIG. 12A is a panel of coa-RI variant peptides were synthesized where each residue in the sequence is individually replaced with Ala (or Ser when the native a.a. is Ala). […] Wells were coated with 0.25 μg/well Fg. Labels -1, -2, -3, -4, -5, -6, -7, -8, -9, -10, -11, -12, -13, -14, -15, -16, -17, -18, -19, -20, -21, -22, -23, -24, -25, -26, -27 refer to Coa-RI-1, Coa-RI-2, Coa-RI-3, Coa-RI-4, Coa-RI-5, Coa-RI-6, Coa-RI-7, Coa-RI-8, Coa-RI-9, Coa-RI-10, Coa-RI-11, Coa-RI-12, Coa-RI-13, Coa-RI-14, Coa-RI-15, Coa-RI-16, Coa-RI-17, Coa-RI-18, Coa-RI-19, Coa-RI-20, Coa-RI-21, Coa-RI-22, Coa-RI-23, Coa-RI-24, Coa-RI-25, Coa-RI-26, Coa-RI-27, respectively. FIG. 12C is a comparison of amino acid sequence of Efb-O with Coa-RI. FIG. 12D is a Fg-binding register of tandem repeats in Coa. Bold letters denote the residues that are important for Fg binding. Binding of a fixed concentration of rCoa-C (2 nM) to immobilized Fg was determined in the presence of a fixed concentration of these peptides (50 uM) (FIG. 12B). […]
FIG. 13A is a schematic presentation of Coa peptides. […] The Fg binding activities of these peptides were then investigated in a competition ELISA where the binding of rCoa-C to Fg coated microtiter wells were determined in the presence of increasing concentrations of peptide (FIG. 13B). […]

Row | Substance | C2C12-α1 and C2C12-α2 adhesion [1] | Kd (Fibrinogen) [nM] | inhibition of rCoa-C binding to fibrinogen by overlapping Coa R peptides (rCoa-C binding to Fg)
1 | DC2-Fg: DC2 with Fg binding motif Efb-O inserted after position 301 Gln (KYIKFKHDYNILEFNDGTFEYGARPQFNKPA; left off: things letters cannot carry; small tags and cut ends) | significantly increased C2C12-α1 and C2C12-α2 adhesion relative to DC2 | ~10 | 
2 | Efb-O: Fg binding motif Efb 68-98 (SEQ ID NO:1); coated comparator in b135 is Efb |  | ~1 | 
3 | sCoa-RI2: 27-residue overlapping Coa repeat I peptide (AYNVTTHANGQVSYGARPTYKKPSETN) |  |  | some inhibitory activity
